This sample holds only a part of the variants without activity. A value given as a limit tells only on which side of the number the result lay.

Sequences and labels used below:
B1: TPR 5TU (parent)
chain: GGAUCUUCUCGAUCUAACAAAAAAGACAAAUCUGCCACAAAGCUUGAGAGCAUCUUCGGAUGCAGAGGCGGCAGCCUUCGGUGGCGCGAUAGCGCCAACGUUCUCAACUAUGACACGCAAAACGCGUGCUCCGUUGAAUGGAGUUUAUCAUG

Variants of B1 are the subject of the data set. As to the kind of experiment: polymerase ribozyme fitness, log enrichment relative to wild type (log ratio); higher = more active; in vitro selection for triplet polymerase activity. The method, boiled down:
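To select mutant libraries of each subunit of a heterodimeric triplet polymerase ribozyme, built by PCR and transcribed, each was annealed with a biotinylated primer, partner subunit and triplets, then incubated frozen at −7 °C. Extended constructs were gel-excised, captured on streptavidin beads and amplified by RT-PCR, in one round carried out in triplicate. Illumina sequencing of input and output libraries kept genotypes with ≥10 input reads and ≥1 read per output. Fitness is the base-2 logarithm of genotype enrichment relative to wild-type enrichment, from inverse-variance-weighted replicate averages.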
In the case of G84A U145C, the “polymerase ribozyme fitness (log ratio)” value was -0.153.
Then C85A A142C, with -3.23; and C85A C149U, with -1.59; and G83A G126C, with 0.173.
Then G83A C95U A106C A107G, with -3.5; and G84A G88U C96G A113U U144G, with ≤ -4.2.
Take G84U G94U: the “polymerase ribozyme fitness (log ratio)” value is -2.37.
Then G83U A113U, with -2.14.
The same measure for G84A C103G C149U: -3.35; for G84A G88U: -3.57; for G84A G88A: ≤ -4.2.
On to G83C C116A A121C, for which the “polymerase ribozyme fitness (log ratio)” value is 0.158.
The same measure for G83C G84U C87U U102G A107U: ≤ -4.2; for G84U A89G: -3.82; for G84A C93U C108G A137U: ≤ -4.2.
Then G83C G152C, with -3.16; and C85A G94A G128C, with -3.21.
The same measure for G84A A98G C105A: -1.05; for G83U G94U C95A: -1.62; for G84U U104G C125A: -3.09.
Take G84U G100A A106U A137C: the “polymerase ribozyme fitness (log ratio)” value was ≤ -4.2.
Take G83U C87U A89C C123A C125U: the “polymerase ribozyme fitness (log ratio)” value was -1.33.
Then G84U C116U G143C, with -3.37; and G84A A110U, with -3.36; and G83A C93U, with -1.36.
Then G84U A89U U104G U127A, with ≤ -4.2.
For the variant C85A A137G, the “polymerase ribozyme fitness (log ratio)” value is -2.96.
Then C85A U135A, with -0.589.
With C85A U135C, the “polymerase ribozyme fitness (log ratio)” value is -2.15.
Then G84A A122G G140A G141A, with ≤ -4.2; and C85G A106C G141C, with -3.91.
For the variant G83A G141U, the “polymerase ribozyme fitness (log ratio)” value was -0.659.
Then G84U A121C, with -1.74.
The same measure for G84U G92C A121U: -2.94; for C85A G92C G141A G143U: ≤ -4.2.
Then G84A A106G A142C, with -0.922; and C85A C99G, with -3.49.
As for C85A C99A, the “polymerase ribozyme fitness (log ratio)” value is -2.8.
The same measure for G83A U101C: -2.23; for G83U G94A: -0.328; for G84U A138U: ≤ -4.2.
The same measure for G83U G112U: -4; for G83A G117C U145G: -1.38.
Then G84U C95U, with -1.23.
With G83U A120U A137C, the “polymerase ribozyme fitness (log ratio)” value was -3.31.
The same measure for C85A: -1.28.
Then C85G, with -2.05; and G83U G88U A150U, with -3.49; and G83U A107U G141U, with ≤ -4.2.
Then C85G A98G U144G, with -0.337; and G83C C116A U146G, with -3.27.
For the variant G83A C87A, the “polymerase ribozyme fitness (log ratio)” value was ≤ -4.2.
As to G84U U127A U134G, the “polymerase ribozyme fitness (log ratio)” value was ≤ -4.2.
With G83C U109A A115C G140C, the “polymerase ribozyme fitness (log ratio)” value was ≤ -4.2.
The same measure for C85G A147C: -1.67; for C85A C87U A119U: ≤ -4.2; for G84U U144A: -3.22.
The same measure for G84C C85G: -4.03; for G83U A142C U145C: -3.76; for G83C U146A: -0.565.
G83A U101G A106U U145C: the “polymerase ribozyme fitness (log ratio)” value was -2.55.
For the variant G83U A150G, the “polymerase ribozyme fitness (log ratio)” value was -3.14.
For the variant G83U G128U, the “polymerase ribozyme fitness (log ratio)” value is -3.22.
As for G84A A97G C129A G152A, the “polymerase ribozyme fitness (log ratio)” value is -4.
With C85A U148C, the “polymerase ribozyme fitness (log ratio)” value is -2.22.
Then C85A U148A, with -3.51; and G84U C105A U139C, with -4.17.
The same measure for G84U G117U C123U G141A U146A: ≤ -4.2; for G84C C125G: -1.94; for G84A C95A: -0.531.
As for G84A C95G, the “polymerase ribozyme fitness (log ratio)” value is -0.784.
Then G84U U102C C149G, with ≤ -4.2; and G83C U144C, with -1.58.
Then G83A U102C C103G U145G, with ≤ -4.2.
Then G83C A106G, with -0.352.
Regarding G83U G92A C125G A138G U151A, the “polymerase ribozyme fitness (log ratio)” value is ≤ -4.2.
The same measure for C85G A119U: -3.69; for G83C C131G: -3.32; for G83U C103U: 0.2.
For G84U A106C, the “polymerase ribozyme fitness (log ratio)” value is -2.1.
The same measure for G84U A106U: -2.69.
For the variant G84U G86C C93G A98U A142U, the “polymerase ribozyme fitness (log ratio)” value is -1.78.
Then C85A U134G, with -3.6.
The same measure for C85A U134C: -0.169; for G83A C99U G143A A147U: -3.6.
Then G83C G126U, with 0.246; and G83C G126A, with 0.0538; and G83U U139G, with -0.239.
With C85A A91G, the “polymerase ribozyme fitness (log ratio)” value was -3.36.
The same measure for C85A C96U G128A: -4.19.
Then G84C C95A A142C, with -1.65.
For the variant G83C G84U A110C, the “polymerase ribozyme fitness (log ratio)” value was ≤ -4.2.
The same measure for G84A U135A: -1.69; for C85A A147G: -0.743.
G84A U134G: the “polymerase ribozyme fitness (log ratio)” value was -2.31.
The same measure for G84A U134C: -0.573.
Take G83C C118G: the “polymerase ribozyme fitness (log ratio)” value was -0.968.
The same measure for G83C C118U: -1.34; for G84A G136A U148C: -1.66; for G83U G94C C116U: -2.08.
Then G84A U146A, with -0.719; and G84A U144A, with -1.65.
Consider G84A U144G, for which the “polymerase ribozyme fitness (log ratio)” value was found to be 0.394.
The same measure for G83U G117U: -0.498; for G84A C118U G141A: 0.213.
The same measure for G84U A137U C149A: ≤ -4.2; for C85A C125A A137G: -2.28.
Then G83A C95U, with -0.657; and G83A C95G, with -1.23; and G84U C87G U90C C96U U145G, with ≤ -4.2.
For the variant G83U G100U, the “polymerase ribozyme fitness (log ratio)” value is -3.9.
The same measure for G84U C99G U148A: ≤ -4.2; for G84A A142C: -1.65; for G84A A142G: -1.82.
Regarding C85A C103G A147U, the “polymerase ribozyme fitness (log ratio)” value was -2.48.
For the variant G84U C129U, the “polymerase ribozyme fitness (log ratio)” value is -1.42.
The same measure for G83C C93U C96A: -1.71; for G83U C105G A107G U135G G152C: ≤ -4.2; for G84A C123U: -0.156.
Then G84A C123G, with -0.679; and G84A U102A, with -1.01.
Then G84U G88A A120C, with ≤ -4.2.
In the case of C85A U145G, the “polymerase ribozyme fitness (log ratio)” value is -1.06.
With C85A G140U, the “polymerase ribozyme fitness (log ratio)” value is -3.
Take C85A G140A: the “polymerase ribozyme fitness (log ratio)” value was -4.18.
Regarding C85A G112U A113C U148G, the “polymerase ribozyme fitness (log ratio)” value was ≤ -4.2.
The same measure for G83A C99U: -2.05; for G84U C123A: -1.79; for C85A C105U: -1.89.
Then G83A C114U, with -2.41; and C85A G133U, with ≤ -4.2; and G84A A89G, with -1.6.
Then G84A C114G G124A U134C, with -3.53.
Regarding G83C C95G U148G, the “polymerase ribozyme fitness (log ratio)” value was ≤ -4.2.
Then G84A A115U, with -2.62; and G84A A115C, with -0.594; and C85A C118A, with -0.973.
As to G84A C105U, the “polymerase ribozyme fitness (log ratio)” value is 0.191.
Turning to G84A A91U G126U G143U, the “polymerase ribozyme fitness (log ratio)” value is ≤ -4.2.
Take C85A C95A C125U: the “polymerase ribozyme fitness (log ratio)” value is -1.39.
The same measure for C85A G152U: -3.5; for G83C A121U: 0.406; for G84U G141A: -1.4.
The same measure for G84C C85A G92U C96A A97C C105U: -2.61; for C85A C123U: -1.2.
The same measure for G84A A97U: -1.12; for G84A A97G: -2.34; for C85A C108U U135A U144C: -4.17.
For G84U C96A C103U A113U, the “polymerase ribozyme fitness (log ratio)” value is ≤ -4.2.
With G84U C93A U101C A107G G133U G141C, the “polymerase ribozyme fitness (log ratio)” value is ≤ -4.2.
The same measure for C85A A150G: -2.41; for C85A A150C: ≤ -4.2; for C85A G112U: ≤ -4.2.
As to G84U U101G U134G, the “polymerase ribozyme fitness (log ratio)” value was -3.87.
For G84A C93U, the “polymerase ribozyme fitness (log ratio)” value is -1.83.
Take G84C A115G: the “polymerase ribozyme fitness (log ratio)” value is -2.49.
Then C85A A98G C116U A120C A147U, with 0.389; and G83C C96U A147U G152A, with -1.98.
On to G83U A98C A115G, for which the “polymerase ribozyme fitness (log ratio)” value is -1.62.
The same measure for G84A G94A A98C G124A: -0.811.
The same measure for G84A G136C: -3.25; for G84A G136A: -0.313; for C85A C93U A119C G126U U127A: ≤ -4.2.
Then G83C C132A, with -2.69; and G83C G117U, with -1.62; and G83U A115C, with -0.337.
In the case of C85A U135G A137U, the “polymerase ribozyme fitness (log ratio)” value is ≤ -4.2.
